According to article PMC7048932, “Examining sterically demanding lysine analogs for histone lysine methyltransferase catalysis” (Scientific Reports, 2020):

What was measured:
[1] = molecular target: GLP (human) (UniProt Q9H9B1)
[2] = molecular target: G9a (human) (UniProt Q96KQ7)
[3] = molecular target: T1, SETD7 (human) (UniProt Q8WTS6)
T1 sequence: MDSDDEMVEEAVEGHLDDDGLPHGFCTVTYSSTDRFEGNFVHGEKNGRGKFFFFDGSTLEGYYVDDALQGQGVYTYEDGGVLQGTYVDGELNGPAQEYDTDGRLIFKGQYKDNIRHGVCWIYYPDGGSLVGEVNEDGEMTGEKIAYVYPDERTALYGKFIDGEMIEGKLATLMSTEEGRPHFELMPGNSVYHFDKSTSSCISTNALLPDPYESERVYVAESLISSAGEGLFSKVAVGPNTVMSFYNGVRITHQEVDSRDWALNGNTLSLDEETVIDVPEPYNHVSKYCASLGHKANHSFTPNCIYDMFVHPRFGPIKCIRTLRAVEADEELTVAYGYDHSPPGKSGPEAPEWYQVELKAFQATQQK

Sequence of G9a (human) (Q96KQ7 whole entry): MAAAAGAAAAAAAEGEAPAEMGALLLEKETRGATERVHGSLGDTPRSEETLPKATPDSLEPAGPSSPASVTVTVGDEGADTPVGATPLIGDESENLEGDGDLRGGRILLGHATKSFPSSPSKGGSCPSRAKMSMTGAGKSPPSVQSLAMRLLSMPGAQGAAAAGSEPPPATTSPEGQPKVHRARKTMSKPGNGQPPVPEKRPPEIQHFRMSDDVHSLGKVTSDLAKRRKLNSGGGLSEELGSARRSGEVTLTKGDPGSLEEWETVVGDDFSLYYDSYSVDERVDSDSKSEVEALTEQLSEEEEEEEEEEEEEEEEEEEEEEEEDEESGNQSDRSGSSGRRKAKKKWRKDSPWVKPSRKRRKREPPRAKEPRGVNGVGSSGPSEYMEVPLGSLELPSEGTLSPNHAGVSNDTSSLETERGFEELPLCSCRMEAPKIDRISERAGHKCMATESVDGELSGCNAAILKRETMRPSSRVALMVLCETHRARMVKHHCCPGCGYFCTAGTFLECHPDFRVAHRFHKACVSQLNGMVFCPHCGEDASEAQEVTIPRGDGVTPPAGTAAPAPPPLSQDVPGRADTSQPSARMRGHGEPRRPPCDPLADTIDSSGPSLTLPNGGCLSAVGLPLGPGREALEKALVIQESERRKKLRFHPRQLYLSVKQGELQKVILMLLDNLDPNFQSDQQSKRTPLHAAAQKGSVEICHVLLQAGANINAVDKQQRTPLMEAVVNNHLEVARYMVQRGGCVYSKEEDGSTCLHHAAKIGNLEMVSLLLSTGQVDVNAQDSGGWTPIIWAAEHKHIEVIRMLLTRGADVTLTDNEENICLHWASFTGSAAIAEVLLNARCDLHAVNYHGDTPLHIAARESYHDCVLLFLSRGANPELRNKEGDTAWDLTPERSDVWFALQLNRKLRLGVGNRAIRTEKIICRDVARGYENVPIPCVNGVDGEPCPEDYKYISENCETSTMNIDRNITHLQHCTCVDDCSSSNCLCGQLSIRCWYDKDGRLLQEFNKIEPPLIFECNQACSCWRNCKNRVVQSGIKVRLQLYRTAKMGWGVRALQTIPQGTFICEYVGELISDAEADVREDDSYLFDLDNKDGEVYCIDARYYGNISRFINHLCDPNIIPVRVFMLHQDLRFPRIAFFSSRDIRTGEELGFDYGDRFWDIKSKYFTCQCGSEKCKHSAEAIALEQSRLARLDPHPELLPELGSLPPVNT
Sequence of GLP (human) (Q9H9B1 whole entry): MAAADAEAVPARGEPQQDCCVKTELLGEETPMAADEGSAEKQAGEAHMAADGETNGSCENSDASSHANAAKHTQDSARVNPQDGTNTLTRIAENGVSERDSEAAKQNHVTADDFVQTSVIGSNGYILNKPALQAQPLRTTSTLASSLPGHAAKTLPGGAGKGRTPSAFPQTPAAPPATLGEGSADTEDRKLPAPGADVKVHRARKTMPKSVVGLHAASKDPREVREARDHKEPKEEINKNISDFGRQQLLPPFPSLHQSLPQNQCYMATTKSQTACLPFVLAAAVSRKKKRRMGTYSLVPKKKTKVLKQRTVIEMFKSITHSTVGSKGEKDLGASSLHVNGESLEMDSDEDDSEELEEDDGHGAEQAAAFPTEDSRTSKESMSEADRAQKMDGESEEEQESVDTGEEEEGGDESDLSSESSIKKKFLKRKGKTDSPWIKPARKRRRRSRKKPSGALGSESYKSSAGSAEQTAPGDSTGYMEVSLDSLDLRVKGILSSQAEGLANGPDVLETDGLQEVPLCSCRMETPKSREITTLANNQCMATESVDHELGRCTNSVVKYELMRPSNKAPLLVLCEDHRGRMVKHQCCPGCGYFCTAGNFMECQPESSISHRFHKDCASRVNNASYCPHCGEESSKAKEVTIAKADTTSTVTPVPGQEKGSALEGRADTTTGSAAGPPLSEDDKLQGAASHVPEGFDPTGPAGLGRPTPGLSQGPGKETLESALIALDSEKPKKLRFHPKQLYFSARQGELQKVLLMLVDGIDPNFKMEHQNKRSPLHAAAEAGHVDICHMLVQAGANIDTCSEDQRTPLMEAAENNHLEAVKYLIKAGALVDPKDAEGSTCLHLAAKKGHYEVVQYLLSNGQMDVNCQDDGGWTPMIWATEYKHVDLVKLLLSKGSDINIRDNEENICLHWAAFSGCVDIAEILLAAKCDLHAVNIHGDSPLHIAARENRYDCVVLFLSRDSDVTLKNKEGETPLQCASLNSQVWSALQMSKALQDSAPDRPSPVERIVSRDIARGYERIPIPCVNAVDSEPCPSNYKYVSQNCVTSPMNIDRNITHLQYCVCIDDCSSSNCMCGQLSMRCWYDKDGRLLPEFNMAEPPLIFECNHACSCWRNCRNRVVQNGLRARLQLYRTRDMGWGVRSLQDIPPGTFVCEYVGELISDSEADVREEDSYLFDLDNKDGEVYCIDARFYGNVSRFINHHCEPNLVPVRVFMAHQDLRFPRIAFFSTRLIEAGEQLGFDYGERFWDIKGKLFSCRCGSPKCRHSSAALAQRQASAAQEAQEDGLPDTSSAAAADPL

IC50 of inhibition of GLP (100 nM) methylation of a 21-mer H3 peptide (residues 1–21, 5 µM) with SAM (20 µM), MALDI-TOF MS [1]	IC50 of inhibition of G9a (100 nM) methylation of a 21-mer H3 peptide (residues 1–21, 5 µM) with SAM (20 µM), MALDI-TOF MS [2]	IC50 of inhibition of SETD7 (100 nM) methylation of a 21-mer H3 peptide (residues 1–21, 5 µM) with SAM (20 µM), MALDI-TOF MS [3]	percent inhibition of SETD7 (100 nM) methyltransferase activity at 100 µM peptide, MALDI-TOF MS [3]	Substance
> 100 µM	> 100 µM			H3AP9 histone peptide
26 µM				H3F3a9 histone peptide
		> 100 µM	11%	H3F4a4 histone peptide
> 100 µM	> 100 µM			H3F4a9 histone peptide
		> 100 µM		H3K4 analog histone peptide with benzylamine (Kba) at position 4
		> 100 µM		H3K4 analog histone peptide with meta-aminophenylalanine (F3a) at position 4
		> 100 µM		H3K4 analog histone peptide with pyridylalanine (AP) at position 4
> 100 µM	> 100 µM			H3Kba9 histone peptide
